Reference: patent US20120040900A1 (BRIGHAM AND WOMEN S HOSPITAL, published 2012)

B1: RR1234L (peptide)
coil peptide: KGGGLEIRAAFLRRRNTALRTRVAELRQRVQRLRNIVSQYETRYGPL
notes: also called RR1234L (pI=12.4); basic coil peptide

Legend:
RR1234L = molecular target: B1; assay: heterodimer, circular dichroism thermal denaturation; unit inferred
[1] = homodimer, circular dichroism thermal denaturation; unit inferred
[2] = molecular target: the molecule itself; assay: homodimer, circular dichroism thermal denaturation; unit not given

Protein	Tm (RR1234L)	Tm [1]	ΔG [2]	ΔH [2]
LEIEAAFLEQENTALETEVAELEQEVQRLENIVSQYETRYGPLGGGK (also called EE1234L (pI=3.7); acidic coil peptide) [EE1234L]	> 90 °C	28 °C	-6.2	-45
B1		44 °C	-9.4	-66
